The record followed here is US20230192835A1 (PROMETHEUS BIOSCIENCES, published 2023).

In test [1] the target is T1, membrane-associated human TL1A on transfected HEK293 cells (human, UniProt O95150 1-251).
T1 construct: whole, on cells
T1 sequence (looked up): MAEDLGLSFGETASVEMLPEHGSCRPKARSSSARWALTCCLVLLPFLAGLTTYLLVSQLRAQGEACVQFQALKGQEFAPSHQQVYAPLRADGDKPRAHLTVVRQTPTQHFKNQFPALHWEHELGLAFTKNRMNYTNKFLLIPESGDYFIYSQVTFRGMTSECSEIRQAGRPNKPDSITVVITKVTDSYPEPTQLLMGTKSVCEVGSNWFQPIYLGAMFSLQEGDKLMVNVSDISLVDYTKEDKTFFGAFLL
Nature of the test: flow cytometry, HEK293 cells expressing human TL1A, Fab. As to the method: All the Fab variants were tested for binding to membrane-associated human TL1A. For these studies a HEK293 cell line that had been transfected with human TL1A was used. The 293 cells expressing membrane bound human TL1A were maintained in DMEM containing L-glutamine, glucose, sodium pyruvate, and phenol red (ThermoFisher cat #11995-065) plus 10% fetal bovine serum, 1× penicillin-streptomycin (Fisher cat #15140122) and 2 μg/ml puromycin (Gibco cat #A11138-03) in a 37° C. incubator with 5% CO₂. Three days prior to the assay, a T-75 flask was seeded with 3×10⁶ cells so that the flask was 90-95% confluent on the day of the assay. The media was aspirated and the cell monolayer was gently washed with 5 ml PBS. Adherent cells were removed by repeatedly pipetting 10 ml ice cold 1% BSA/PBS against the monolayer. The cells were counted and 5×10⁵ were aliquoted for each sample to be analyzed. The cells were collected by centrifuging at 300×g at 4° C. for 5 minutes and the wash was discarded. The cells were resuspended in 100 μl Fab or IgG diluted in 1% BSA/PBS and placed on ice for 30 min. Next, the cells were washed with 1 ml 1% BSA/PBS and collected by centrifuging at 300×g at 4° C. for 5 min. The wash was discarded and 100 μl secondary goat F(ab′)2 anti-human kappa FITC (Southern Biotech cat #2062-02) or goat F(ab′)2 anti-human IgG PE (Southern Biotech cat #2043-09) conjugate, diluted 1:200 in BSA/PBS was added. Cells were placed on ice for 30 min. Finally, the cells were washed with 1 ml BSA/PBS, collected by centrifuging at 300×g at 4° C. for 5 min. The wash was removed and the cells were resuspended in 500 μl 1% BSA/PBS. One drop of Sytox AADvanced ReadyFlow Reagent (ThermoFisher cat #R37173) was added per sample and the samples were analyzed on the Attune NxT Flow Cytometer (ThermoFisher).
On the technique in general: In flow cytometry, cells or beads pass a laser one at a time.

Test [2] addresses T1, membrane-associated human TL1A on …. Description: flow cytometry, HEK293 cells expressing human TL1A, IgG.

B1: Clone 2 Fab (Fab, V domains shown)
VH: QVQLVQSGAEVKKPGASVKVSCKASGFDIQDTYMHWVRQAPGQGLEWMGRIEPASGHIKYSPKFQGRVTMTRDTSTSTVYMELSSLRSEDTAVYYCARSGGLPDWWGQGTTVTVSS
VL: EIVLTQSPGTLSLSPGERATLSCRASSSVSYMYWYQQKPGQAPRLLIYATSNLASGIPDRFSGSGSGTDFTLTISRLEPEDFAVYYCQQWEGNPRTFGGGTKLEIK
notes: Fab
For the molecule B1, the binding result in test [1] is recorded as “binds”.

B2: Clone 17L Fab (Fab, V domains shown)
VH: QVQLVQSGAEVKKPGASVKVSCKASGFDIQDTYMHWVRQAPGQGLEWMGRIDPASGHLKYDPKFQVRVTMTRDTSTSTVYMELSSLRSEDTAVYYCARSGGLPDMWGQGTTVTVSS
VL: EIVLTQSPGTLSLSPGERATLSCRASSSVSYMYWYQQKPGQAPRLLIYATSNLASGIPDRFSGSGSGTDFTLTISRLEPEDFAVYYCQQWQGNPRTFGGGTKLEIK
notes: Fab
Regarding B2, the binding result in test [1] was “binds”.

B3: Clone 52 Fab (Fab, V domains shown)
VH: QVQLVQSGAEVKKPGASVKVSCKASGFDIQDTYMHWVRQAPGQGLEWMGRIEPASGHIKYSPKFQGRVTMTRDTSTSTVYMELSSLRSEDTAVYYCARSGGLPDWWGQGTTVTVSS
VL: EIVLTQSPGTLSLSPGERATLSCGASSSVSYMYWYQQKPGQAPRLLIYATSNLASGIPDRFSGSGSGTDFTLTISRLEPEDFAVYYCQQWEGNPRTFGGGTKLEIK
notes: Fab
For B3, the binding result in test [1] is “binds”.

B4: Clone 46 Fab (Fab, V domains shown)
VH: QVQLVQSGAEVKKPGASVKVSCKASGFDIQDTYMHWVRQAPGQGLEWMGRIEPASGHVKYSPKFQVRVTMTRDTSTSTVYMELSSLRSEDTAVYYCARSGGLPDWWGQGTTVTVSS
VL: EIVLTQSPGTLSLSPGERATLSCRASSSVSYMYWYQQKPGQAPRLLIYATSNLASGIPDRFSGSGSGTDFTLTISRLEPEDFAVYYCQQWEGNPRTFGGGTKLEIK
notes: Fab
In the case of B4, the binding result in test [1] is “binds”.

B5: Clone 47 Fab (Fab, V domains shown)
VH: QVQLVQSGAEVKKPGASVKVSCKASGFDIQDTYMHWVRQAPGQGLEWMGRIEPASGHVKYDPKFQTRVTMTRDTSTSTVYMELSSLRSEDTAVYYCARSGGLPDWWGQGTTVTVSS
VL: EIVLTQSPGTLSLSPGERATLSCRASSSVSYMYWYQQKPGQAPRLLIYATSNLASGIPDRFSGSGSGTDFTLTISRLEPEDFAVYYCQQWEGNPRTFGGGTKLEIK
notes: Fab
With B5, the binding result in test [1] is listed as “binds”.

B6: Clone 17L IgG1 (modified) (antibody)
heavy: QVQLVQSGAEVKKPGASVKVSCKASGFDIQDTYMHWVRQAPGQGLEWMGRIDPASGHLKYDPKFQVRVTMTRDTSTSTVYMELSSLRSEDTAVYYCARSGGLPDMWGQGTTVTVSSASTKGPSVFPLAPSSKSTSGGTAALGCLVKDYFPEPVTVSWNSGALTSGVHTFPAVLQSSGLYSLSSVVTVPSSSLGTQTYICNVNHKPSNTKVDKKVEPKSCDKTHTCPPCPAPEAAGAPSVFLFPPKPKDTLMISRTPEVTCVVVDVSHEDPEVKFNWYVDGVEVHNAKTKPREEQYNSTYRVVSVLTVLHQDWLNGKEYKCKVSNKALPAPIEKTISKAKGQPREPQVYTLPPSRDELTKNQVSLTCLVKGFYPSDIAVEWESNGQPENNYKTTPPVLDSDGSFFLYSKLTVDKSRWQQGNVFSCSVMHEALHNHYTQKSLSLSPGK
light: EIVLTQSPGTLSLSPGERATLSCRASSSVSYMYWYQQKPGQAPRLLIYATSNLASGIPDRFSGSGSGTDFTLTISRLEPEDFAVYYCQQWQGNPRTFGGGTKLEIKRTVAAPSVFIFPPSDEQLKSGTASVVCLLNNFYPREAKVQWKVDNALQSGNSQESVTEQDSKDSTYSLSSTLTLSKADYEKHKVYACEVTHQGLSSPVTKSFNRGEC
notes: also called 17L G1
As to B6, the binding result in test [2] is reported as “binds”.

B7: Clone 47 IgG1 (modified) (antibody)
heavy: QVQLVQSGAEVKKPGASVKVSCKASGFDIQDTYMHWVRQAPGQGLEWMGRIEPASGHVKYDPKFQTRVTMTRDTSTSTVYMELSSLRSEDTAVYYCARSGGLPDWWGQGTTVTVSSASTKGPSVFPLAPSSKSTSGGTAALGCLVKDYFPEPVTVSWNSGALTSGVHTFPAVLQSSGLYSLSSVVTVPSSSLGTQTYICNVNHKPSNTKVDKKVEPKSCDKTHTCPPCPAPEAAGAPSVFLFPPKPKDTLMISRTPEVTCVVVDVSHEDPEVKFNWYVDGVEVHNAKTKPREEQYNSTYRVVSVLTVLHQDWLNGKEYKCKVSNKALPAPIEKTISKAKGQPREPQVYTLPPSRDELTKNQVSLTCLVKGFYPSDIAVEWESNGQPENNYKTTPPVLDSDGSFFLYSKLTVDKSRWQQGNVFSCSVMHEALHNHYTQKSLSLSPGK
light: EIVLTQSPGTLSLSPGERATLSCRASSSVSYMYWYQQKPGQAPRLLIYATSNLASGIPDRFSGSGSGTDFTLTISRLEPEDFAVYYCQQWEGNPRTFGGGTKLEIKRTVAAPSVFIFPPSDEQLKSGTASVVCLLNNFYPREAKVQWKVDNALQSGNSQESVTEQDSKDSTYSLSSTLTLSKADYEKHKVYACEVTHQGLSSPVTKSFNRGEC
notes: also called 47 G1; variant 47
For the molecule B7, in test [2], the binding result is recorded as “binds”.

B8: Clone 47 IgG2 (antibody)
heavy: QVQLVQSGAEVKKPGASVKVSCKASGFDIQDTYMHWVRQAPGQGLEWMGRIEPASGHVKYDPKFQTRVTMTRDTSTSTVYMELSSLRSEDTAVYYCARSGGLPDWWGQGTTVTVSSASTKGPSVFPLAPCSRSTSESTAALGCLVKDYFPEPVTVSWNSGALTSGVHTFPAVLQSSGLYSLSSVVTVPSSNFGTQTYTCNVDHKPSNTKVDKTVERKCCVECPPCPAPPVAGPSVFLFPPKPKDTLMISRTPEVTCVVVDVSHEDPEVQFNWYVDGVEVHNAKTKPREEQFNSTFRVVSVLTVVHQDWLNGKEYKCKVSNKGLPAPIEKTISKTKGQPREPQVYTLPPSREEMTKNQVSLTCLVKGFYPSDIAVEWESNGQPENNYKTTPPMLDSDGSFFLYSKLTVDKSRWQQGNVFSCSVMHEALHNHYTQKSLSLSPGK
light: EIVLTQSPGTLSLSPGERATLSCRASSSVSYMYWYQQKPGQAPRLLIYATSNLASGIPDRFSGSGSGTDFTLTISRLEPEDFAVYYCQQWEGNPRTFGGGTKLEIKRTVAAPSVFIFPPSDEQLKSGTASVVCLLNNFYPREAKVQWKVDNALQSGNSQESVTEQDSKDSTYSLSSTLTLSKADYEKHKVYACEVTHQGLSSPVTKSFNRGEC
notes: also called 47 G2
For B8, the binding result in test [2] was “binds”.

B9: Clone 17L IgG2 (antibody)
heavy: QVQLVQSGAEVKKPGASVKVSCKASGFDIQDTYMHWVRQAPGQGLEWMGRIDPASGHLKYDPKFQVRVTMTRDTSTSTVYMELSSLRSEDTAVYYCARSGGLPDMWGQGTTVTVSSASTKGPSVFPLAPCSRSTSESTAALGCLVKDYFPEPVTVSWNSGALTSGVHTFPAVLQSSGLYSLSSVVTVPSSNFGTQTYTCNVDHKPSNTKVDKTVERKCCVECPPCPAPPVAGPSVFLFPPKPKDTLMISRTPEVTCVVVDVSHEDPEVQFNWYVDGVEVHNAKTKPREEQFNSTFRVVSVLTVVHQDWLNGKEYKCKVSNKGLPAPIEKTISKTKGQPREPQVYTLPPSREEMTKNQVSLTCLVKGFYPSDIAVEWESNGQPENNYKTTPPMLDSDGSFFLYSKLTVDKSRWQQGNVFSCSVMHEALHNHYTQKSLSLSPGK
light: EIVLTQSPGTLSLSPGERATLSCRASSSVSYMYWYQQKPGQAPRLLIYATSNLASGIPDRFSGSGSGTDFTLTISRLEPEDFAVYYCQQWQGNPRTFGGGTKLEIKRTVAAPSVFIFPPSDEQLKSGTASVVCLLNNFYPREAKVQWKVDNALQSGNSQESVTEQDSKDSTYSLSSTLTLSKADYEKHKVYACEVTHQGLSSPVTKSFNRGEC
notes: also called 17L G2
As for B9, the binding result in test [2] was “binds”.
